This note sets out measurements from patent US20250264470A1 (RHODE ISLAND HOSPITAL, published 2025).

The experiment deals with T1, NPVEDS peptide (LRC1 epitope, residues 286-291 of ASPH) (human).
T1 peptide: NPVEDS
Nature of the experiment: peptide inhibition (data not shown).

B1: LRC1 monoclonal antibody (antibody, V domains shown)
VH: EVQLVESGGGLVKPGGSLKFSCAASGFTFSRYAMPWVRQTPEKRLEWVATISSGGSYTYYPDSVKGRLTISRDNAKNTLYLQMSSLRSEDTAMYYCARQGNYYGSSHLYYAMDYWGQGTSVTVSS
VL: QLVLTQSSSASFSLGASAKLTCTLNSQHRAYTIEWYQQQPLKPPKYVMELKKDGSHSTGDGIPDRFSGSSSGADRYLSISNIQPEDEAIYICGVGDTIKEQFVYVFGGGTKVTVL
notes: also called LRC1 mAb; LRC1 antibody
With B1, the binding result is on record as “binds”.
